# Laboratory results as given in paper PMC8792015, “The MuvB complex binds and stabilizes nucleosomes downstream of the transcription start site of cell-cycle dependent genes”.
# B1: TTK promoter 40-bp fragment (dsDNA)
# DNA 1: GTGATAGCGACGGGGAAATTCAAACGTGTTTGCGGAAAGG
# DNA 2: CCTTTCCGCAAACACGTTTGAATTTCCCCGTCGCTATCAC
# Biological target: MuvB complex (LIN9 94-542, LIN37, LIN52, LIN54 504-749, RBAP48) (Homo sapiens, UniProt Q5TKA1;Q96GY3;Q52LA3;Q6MZP7;Q09028 94-542;1-246;1-112;504-749;1-425)
# Experiment: fluorescence polarization; Kd value only in figure table; FP nucleosomes/601: 50 mM Tris pH 7.5, 150 mM NaCl, 1 mM DTT, 0.1% Tween-20, 20 nM probe (stated for peptide); FP TTK: 20 nM DNA, 20 mM Tris pH 8.0, 150 mM NaCl, 0.1% Tween-20; temperature not stated
# Conditions: protein: recombinant; tags: GST/Strep/His tags removed by TEV; copies: 1;1;1;1;1; label: fluorescein
binder,measurement,value
B1,binding result,binds
